What all share (assay type): biochemical
The target in assay [1] is T1, purified soluble type ENPP6 protein (Homo sapiens, UniProt Q6UWR7).
T1 construct: signal peptide; base No. 1 to 66, mature protein; base No. 67 to 1269; made in house; host or cells: HEK293T (secreted into culture supernatant, His-Trap purified)
T1 sequence (Q6UWR7 23-423): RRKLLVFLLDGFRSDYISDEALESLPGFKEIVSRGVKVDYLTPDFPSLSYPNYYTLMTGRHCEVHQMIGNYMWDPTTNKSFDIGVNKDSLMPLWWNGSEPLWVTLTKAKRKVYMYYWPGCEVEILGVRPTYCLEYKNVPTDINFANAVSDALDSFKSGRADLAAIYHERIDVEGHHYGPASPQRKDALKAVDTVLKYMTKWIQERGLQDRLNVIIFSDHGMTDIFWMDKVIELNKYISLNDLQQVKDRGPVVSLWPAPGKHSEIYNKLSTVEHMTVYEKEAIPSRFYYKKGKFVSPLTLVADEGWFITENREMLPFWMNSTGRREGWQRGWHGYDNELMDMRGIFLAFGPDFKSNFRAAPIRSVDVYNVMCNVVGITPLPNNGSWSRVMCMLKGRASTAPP
Put plainly: Inhibition of light-emitting substrate degradation by soluble type ENPP6 protein. The protocol: 0.2 μg of the purified soluble type ENPP6 protein was mixed in 90 μL of assay buffer (20 mM HEPES, 140 mM NaCl, 5 mM KCl, 1 mM CaCl2, 1 mM MgCl2, 10 mM Glucose, pH 9.6), and 10 μL of each of 10 mM pNP-PP and a solution of a test compound was added thereto, and was kept at 37° C. for 2 hours. Then, absorption of light of 405 nm was measured and thereby, the amount of p-nitorphenol was quantitatively determined and thereby the inhibitory activity of […] degradation of each of the test compounds was examined. By using Neurotransmitter Library Plate 10 (Purinergic & adenosines) ver. 2, Bioactive Lipid Library ver. 3 (manufactured by BIOMOL Inc.), and various lysophospholipids as test compounds, the inhibitory activity of pNP-PP degradation was measured and, 80% or more of the inhibitory activity was detected in Glycerophosphorilcholine, and 70% or more of the inhibitory activity in Lysophosphatidylcholine, 1-Methyladenosine, 3-Deazaadenosine, ATP, and ADP(1 mM), and 60% or more of the inhibitory activity in N6-Methyladenosine, N6-Methyl-2′-deoxy-adenosine, S-Adenosyl-L-Homocysteine, and 2-MethylthioATP.

Assay [2] can be described thus: Bivalent cation requirement of soluble type ENPP proteins (PDE/PME activity). The settings on record: MgCl2 and CaCl2 1 mM vs no additive vs EDTA 1 mM, pNP-PP, FIG. 9. The protocol:
(§1) 0.2 μg of the purified soluble type ENPP4 protein was mixed in 90 μL of assay buffer (20 mM HEPES, 140 mM NaCl, 5 mM KCl, 10 mM Glucose, pH 9.6), 10 μL of 10 mM pNP-PP, and (1) 1 mM final concentration of MgCl2 and CaCl2, (2) no additive, or (3) 1 mM final concentration of EDTA, and then was kept at 37° C. for 90 min and then, absorption of light of 405 nm was measured and thereby, the increase or decrease of the PDE/PME activity by removing bivalent cations was examined.
as §1, with “ENPP5” for “ENPP4”, “examined. […] It has been thought that a certain cation except for calcium and magnesium ions is bonded to the purified soluble type ENPP5 protein because the activity decreases in the EDTA-adding sample and increases in the no-additive sample. […]” for “examined.”

Assay [3] in a line: NPP/PDE activity of soluble type ENPP proteins (pNP-TMP degradation, 405 nm). The settings on record: 1 mM pNP-TMP, pH 9.6, 37° C., 2 hours, absorption at 405 nm. Here is the method:
400 mL of the culture supernatant of the cells expressing the soluble type human ENPP4 protein was concentrated at 8 times by using Amicon Ultra-15 (fraction molecular weight 10,000, manufactured by Millipore Inc.). The His-Tag-added protein was affinity-purified by using AKTAexplorer 10S (manufactured by Amersham Biosciences Inc.) and His-Trap column (manufactured by Amersham Biosciences Inc.). Samples in the respective purification steps were subjected to SDS-PAGE according to a predetermined method and then the protein was stained by using Simply-Blue-Stain (manufactured by Invitrogen Inc.). […] 40 μL of each of the respective purification steps and purified soluble type human ENPP4-FLAG-His proteins was mixed with 50 μL of assay buffer (20 mM HEPES, 140 mM NaCl, 5 mM KCl, 1 mM CaCl2, 1 mM MgCl2, 10 mM Glucose, pH 9.6, the method of Voltmeter P. et al., Eur. J. Biochem. 270 (2003) 2971-78 was improved) and 10 μL of 10 mM p-nitrophenyl-Thymidine monophosphate (pNP-TMP, Sigma Inc.), and the mixture was kept at 37° C. for 2 hours and then, absorption of light of 405 nm was measured and thereby, p-nitorphenol, which was a degradation product, was measured and, whether the Nucleotide Pyrophosphatase (NPP)/Phospho-Diesterase (PDE) activity existed or not was examined. […]

Assay [4] in a line: PDE/PME activity of soluble type ENPP proteins (pNP-PP or bis-pNPP degradation). The settings on record: 0.2 μg protein, 1 mM pNP-PP (ENPP6 also bis-pNPP), pH 9.6, 37° C., 90 min, FIG. 8. Here is the method: 0.2 μg of the purified soluble type ENPP4 protein was mixed in 90 μL of assay buffer (20 mM HEPES, 140 mM NaCl, 5 mM KCl, 1 mM CaCl2, 1 mM MgCl2, 10 mM Glucose, pH 9.6) and 10 μL of 10 mM p-nitrophenyl phenylphosphonate (pNP-PP, manufactured by Sigma Inc.), and was kept at 37° C. for 90 min and then, absorption of light of 405 nm was measured and thereby, the amount of P-nitrophenol was quantitatively determined and, whether the PDE/PME activity existed or not was examined.
0.2 μg of the purified soluble type ENPP5 protein was mixed in 90 μL of assay buffer (20 mM HEPES, 140 mM NaCl, 5 mM KCl, 1 mM CaCl2, 1 mM MgCl2, 10 mM Glucose, pH 9.6) and 10 μL of 10 mM pNP-PP, and was kept at 37° C. for 90 min and then, absorption of light of 405 nm was measured and thereby, the amount of p-nitrophenol was quantitatively determined and, whether the PDE/PME activity existed or not was examined.
0.2 μg of the purified soluble type ENPP6 protein was mixed in 90 μL of assay buffer (20 mM HEPES, 140 mM NaCl, 5 mM KCl, 1 mM CaCl2, 1 mM MgCl2, 10 mM Glucose, pH 9.6) and 10 μL of 10 mM pNP-PP or bis-(p-nitrophenyl)phosphate (bis-pNPP), and was kept at 37° C. for 90 min and then, absorption of light of 405 nm was measured and thereby, the amount of p-nitrophenol was quantitatively determined and, whether the PDE/PME activity existed or not was examined.

Where only a bound is given, the exact number is not on record here.

As for Lysophosphatidylcholine, in assay [1] (FIG. 14), the “concentration dependence of inhibitory activity of pNP-TMP degradation by ENPP6” value is “inhibitory activity of pNP-TMP degradation depending on concentration of LPC was detected”.
In the case of `C[N+](C)(C)CCOP(=O)([O-])OC[C@H](O)CO` [Glycerophosphorilcholine], the “inhibitory activity of pNP-PP degradation” value in assay [1] (pH 9.6, 37° C., 2 hours, 1 mM printed for ADP) was no less than 80%.

B1: soluble type ENPP4 protein: extracellular region of human ENPP4 with FLAG tag and 6×His tag at the C terminal, expressed in HEK293T cells, purified (protein, UniProt Q9Y6X5 16-407, looked up)
extracellular domain: FRSDSSSSLPPKLLLVSFDGFRADYLKNYEFPHLQNFIKEGVLVEHVKNVFITKTFPNHYSIVTGLYEESHGIVANSMYDAVTKKHFSDSNDKDPFWWNEAVPIWVTNQLQENRSSAAAMWPGTDVPIHDTISSYFMNYNSSVSFEERLNNITMWLNNSNPPVTFATLYWEEPDASGHKYGPEDKENMSRVLKKIDDLIGDLVQRLKMLGLWENLNVIITSDHGMTQCSQDRLINLDSCIDHSYYTLIDLSPVAAILPKINRTEVYNKLKNCSPHMNVYLKEDIPNRFYYQHNDRIQPIILVADEGWTIVLNESSQKLGDHGYDNSLPSMHPFLAAHGPAFHKGYKHSTINIVDIYPMMCHILGLKPHPNNGTFGHTKCLLVDQWCINLPEA
modifications: extracellular domain C-terminal FLAG and 6xHis tags
notes: extracellular region of human ENPP4 with FLAG tag and 6×His tag at the C terminal, expressed in HEK293T cells, purified
In the case of B1, the bivalent cation requirement entry in assay [2] is reported as “does not require bivalent cations”. In assay [3], the NPP/PDE activity result is on record as “NPP/PDE activity was detected”. Besides, the PDE/PME activity entry in assay [4] is listed as “has the PDE/PME activity”.

For the origin of these results see patent publication US8110660B2, “Soluble ENPP4 protein” (Ono Pharmaceutical Co., Ltd., priority 2004, dated 2012).
